For this assay, the target named is purified extracellular moiety of SorCS1 (UniProt Q8WY21). The assay is described as follows: SPR; BIAcore 3000, CM5 chip; extracellular moiety of SorCS1 immobilised at about 50 fmol/mm^2; mature BDNF (50–200 nM) injected at 5 μl/min in 10 mM Hepes, 150 mM NaCl, 1.5 mM CaCl2, 1 mM EGTA, 0.005% Tween-20, pH 7.4; Langmuir 1:1 model. (In SPR one partner is held on a chip, and binding of the other changes the refractive index at the surface.)
UniProt Q8WY21, sequence (Q8WY21 34-1099): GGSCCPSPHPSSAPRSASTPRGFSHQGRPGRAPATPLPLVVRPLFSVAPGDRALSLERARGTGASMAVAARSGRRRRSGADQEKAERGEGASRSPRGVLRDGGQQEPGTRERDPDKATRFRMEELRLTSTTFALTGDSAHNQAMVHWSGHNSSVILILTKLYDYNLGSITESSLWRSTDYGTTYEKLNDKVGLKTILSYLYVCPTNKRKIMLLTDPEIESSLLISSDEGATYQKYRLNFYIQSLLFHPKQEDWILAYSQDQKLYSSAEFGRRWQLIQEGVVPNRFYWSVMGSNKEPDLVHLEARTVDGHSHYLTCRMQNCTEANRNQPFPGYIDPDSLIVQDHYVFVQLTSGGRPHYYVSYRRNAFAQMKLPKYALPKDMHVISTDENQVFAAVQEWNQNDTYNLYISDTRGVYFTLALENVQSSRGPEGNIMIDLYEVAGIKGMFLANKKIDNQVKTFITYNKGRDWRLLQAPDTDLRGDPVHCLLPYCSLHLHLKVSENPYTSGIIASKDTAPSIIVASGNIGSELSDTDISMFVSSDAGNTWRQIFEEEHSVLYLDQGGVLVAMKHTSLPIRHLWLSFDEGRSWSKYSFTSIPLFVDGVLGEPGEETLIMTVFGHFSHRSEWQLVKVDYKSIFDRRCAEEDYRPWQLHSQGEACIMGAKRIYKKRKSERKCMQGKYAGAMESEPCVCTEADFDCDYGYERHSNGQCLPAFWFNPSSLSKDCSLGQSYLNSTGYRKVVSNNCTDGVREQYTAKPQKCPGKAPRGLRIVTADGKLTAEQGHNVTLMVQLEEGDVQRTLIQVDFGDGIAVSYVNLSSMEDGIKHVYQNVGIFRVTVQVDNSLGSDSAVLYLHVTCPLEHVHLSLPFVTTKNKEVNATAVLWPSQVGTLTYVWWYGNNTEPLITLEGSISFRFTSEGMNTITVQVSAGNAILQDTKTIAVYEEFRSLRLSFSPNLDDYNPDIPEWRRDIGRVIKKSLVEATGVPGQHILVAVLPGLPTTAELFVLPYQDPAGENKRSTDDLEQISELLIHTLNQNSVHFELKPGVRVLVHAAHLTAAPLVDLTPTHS

Take mature BDNF (ligand): the Kd came to 60 nM.

For orientation: Kd means the constant that tells how readily two partners part at equilibrium. Read a low Kd as tighter binding.
